Here are results for 6 molecules from patent US11957762B2, “Immune tolerant and non-immune tolerant elastin-like recombinant peptides and methods of use” (University of Utah Research Foundation, priority 2015, dated 2024).

A short description of data set [1]: Thermally-induced reversible phase transition (turbidity OD350 vs temperature). The data set is classed as physicochemical. The conditions noted are these: for Tt (cooling) / Tt (heating): 25 μM in H2O. The source says: Characterization of thermally-induced, reversible, inverse phase transition of iTEPs and the iTEPB-iTEPA-pOVA fusion. The phase transitions of iTEP or iTEP fusions were characterized by turbidity changes of sample solutions as a function of temperature. Specifically, the optical density at 350 nm (OD350) of a sample solution was monitored using an UV-visible spectrophotometer equipped with a multi-cell thermoelectric temperature controller (Cary 300, Varian Instruments, Walnut Creek, CA) while the solution was heated from 20° C. to 80° C. and then cooled to 20° C. at a rate of 1° C./min. The maximum first derivative of the turbidity curve of a sample was identified. The transition temperature (Tt) of the sample is the temperature that corresponds to the maximum derivative.

Data set [2] is described as follows: Hydrodynamic diameter by dynamic light scattering (DLS). The data set is classed as physicochemical. The protocol: Characterization of the size of iTEPB-pOVA and iTEPB-iTEPA-pOVA fusions. The particle size distribution of the iTEP fusions was determined by dynamic light scattering (DLS) using a Zetasizer Nano-ZS instrument (Malvern Instruments, Malvern, UK) as previously described.^(29) The fusions were prepared at 5 μM and 25 μM in PBS and equilibrated at 37° C. for the measurement. The reported results represented the average particle size by number.
Dynamic light scattering (DLS) measurement. The measurement was carried out as previously described. iTEP, iTEP-MPBH-ABA-Sali conjugate, or PTX NP were measured at 25 μM in PBS at 37° C. using a Malvern Zetasizer Nano system (Malvern, Chester County, PA, USA).
Characterization of hydrodynamic diameters of iTEP-vaccine fusions. Hydrodynamic diameters of iTEP-vaccine fusions were determined by dynamic light scattering (DLS) using a Zetasizer Nano-ZS instrument (Malvern Instruments, Malvern, UK) as previously described (Zhao et al., Mol Pharm, 2014; 11(8):2703-12). The samples were resuspended at concentrations of 5, 25, 50, and 100 μM in PBS and sat at room temperature overnight before measurement. Some samples were kept in 5% C02 at 37° C. for 16 h before DLS measurement. Hydrodynamic diameter results of the sample of 5 μM concentration were reported because they were not affected by the used sample concentrations. Hydrodynamic diameters were presented using the size-by-number distribution approach. Z-average values and sizes-by-intensity data, however, were also reported.

Data set [3] concerns C57BL/6 mice. Description: In vivo CTL response by ELISPOT IFN-γ assay. The arrangement: species or system mouse. The note with it: subcutaneous immunization twice, 2 nmol SIINFEKL equivalents per mouse with IFA. The source says: in vivo CTL response by ELISPOT IFN-γ assay. C57BL/6 mice were immunized subcutaneously with each immunogen (2 nmol […] equivalents per mouse) together with incomplete Freunds Adjuvants (IFA; Sigma, USA) at their left flanks. The immunization was repeated at their right flanks 1 week later. At 10 days after the second immunization, mice were sacrificed, and the spleens were harvested. The spleens of the sacrificed mice were teased into single-cell suspensions and filtered through nylon mesh […]. Red blood cells were lysed by Ammonium-Chloride-Potassium (ACK) lysing buffer. The washed and resuspended single cells were counted using Contess™ Automated Cell Counter (Invitrogen, USA). Splenocytes (8×10^6/mL) were incubated in RPMI-1640 medium supplemented with 10% heat inactivated fetal calf serum, 2 mM glutamine, 100 units/mL penicillin and 100 μg/mL streptomycin (Invitrogen, USA), in a 14 mL polypropylene tissue culture tube for 48 hours, with or without […] peptide (SEQ ID NO: 22) (2.5 μg/mL). The cells were then washed and recounted. 2×10^5 live cells in 100 μL medium were then loaded into wells of 96-well Filtration plates (Millipore, USA) coated with […] of capture anti-mouse IFN-γ mAb (Clone: R4-6A2, Biolegend, USA). Triplicates were set up for each condition. Cells were discarded after 24 hours of culture and the wells were incubated with […] of detectionbiotinylated, anti-mouse IFN-γ mAb overnight (Clone: XMG1.2-Biotin, Biolegend, USA). After the unbound antibodies were washed away from the wells, the bound antibodies were detected using horseradish peroxidase (HRP Avidin, Biolegend, USA) together with 3-amino-9-ethyl-carbazole (AEC) substrate (Sigma, USA). The membranes on the bottom of the wells were peeled off, and color spots on the membrane were scanned. The spots were automatically counted using ImageJ software.
Animal immunization. C57BL/6 mice were immunized by the subcutaneous injection of 2 nmol iTEP NP vaccines and incomplete Freunds Adjuvants (IFA; Sigma, USA) at their left flanks. Immunization was repeated at their right flanks after 1 week. On day 10 after the second immunization, mice were sacrificed, and the spleens were harvested.

Where “and” joins values, the source holds several entries; their conditions need not be identical. Equal entries are not always repeated.

For the molecule G(VPGLGAGAG)96GG [iTEPD], in data set [1], the “Relative Hydrophobicity” value is listed as “High”; the “Tt (cooling)” value is 35.20 ± 0.57 °C; the “Tt (heating)” value is 38.6 °C and 38.60 ± 1.20 °C. In data set [1] (5 μM), the “(heating) Tt” value amounted to 42.3 °C.

B1: iTEPB-pOVA: a fusion of the hydrophilic iTEPB and the vaccine, soluble (SEQ ID NO: 57) (protein)
chain: GAGVPGGAGVPGGAGVPGGAGVPGGAGVPGGAGVPGGAGVPGGAGVPGGAGVPGGAGVPGGAGVPGGAGVPGGAGVPGGAGVPGGAGVPGGAGVPGGAGVPGGAGVPGGAGVPGGAGVPGGAGVPGGAGVPGGAGVPGGAGVPGGAGVPGGAGVPGGAGVPGGAGVPGGAGVPGGAGVPGGAGVPGGAGVPGGAGVPGGAGVPGGAGVPGGAGVPGGAGVPGGAGVPGGAGVPGGAGVPGGAGVPGGAGVPGGAGVPGGAGVPGGAGVPGGAGVPGGAGVPGGAGVPGGAGVPGGAGVPGGAGVPGGAGVPGGAGVPGGAGVPGGAGVPGGAGVPGGAGVPGGAGVPGGAGVPGGAGVPGGAGVPGGAGVPGGAGVPGGAGVPGGAGVPGGAGVPGGAGVPGGAGVPGGAGVPGGAGVPGCGGGGGGGGCGGGGGGGGCGGGGGGGGCGGGGGGGGCGGGGGGGGCGGGGGGGGCGGGGGGGGCGGGGGGGG
Take B1: the “mean diameter / size (DLS)” value in data set [2] (25 μM in PBS, 37° C., by number) is reported as “less than 10 nm”.

B2: ovalbumin (protein)
chain: GSIGAASMEFCFDVFKELKVHHANENIFYCPIAIMSALAMVYLGAKDSTRTQINKVVRFDKLPGFGDSIEAQCGTSVNVHSSLRDILNQITKPNDVYSFSLASRLYAEERYPILPEYLQCVKELYRGGLEPINFQTAADQARELINSWVESQTNGIIRNVLQPSSVDSQTAMVLVNAIVFKGLWEKAFKDEDTQAMPFRVTEQESKPVQMMYQIGLFRVASMASEKMKILELPFASGTMSMLVLLPDEVSGLEQLESIINFEKLTEWTSSNVMEERKIKVYLPRMKMEEKYNLTSVLMAMGITDVFSSSANLSGISSAESLKISQAVHAAHAEINEAGREVVGSAEAGVDAASVSEEFRADHPFLFCIKHIATNAVLFFGRCVSP
notes: positive control protein antigen
In the case of B2, the “SIINFEKL-restricted activated splenocytes (INF-γ ELISPOT)” value in data set [3] is listed as 61 spots per million seeded splenocytes.

B3: NH2-(GAGVPG)70-(…)8-COOH (protein)
chain: GGAGVPGGAGVPGGAGVPGGAGVPGGAGVPGGAGVPGGAGVPGGAGVPGGAGVPGGAGVPGGAGVPGGAGVPGGAGVPGGAGVPGGAGVPGGAGVPGGAGVPGGAGVPGGAGVPGGAGVPGGAGVPGGAGVPGGAGVPGGAGVPGGAGVPGGAGVPGGAGVPGGAGVPGGAGVPGGAGVPGGAGVPGGAGVPGGAGVPGGAGVPGGAGVPGGAGVPGGAGVPGGAGVPGGAGVPGGAGVPGGAGVPGGAGVPGGAGVPGGAGVPGGAGVPGGAGVPGGAGVPGGAGVPGGAGVPGGAGVPGGAGVPGGAGVPGGAGVPGGAGVPGGAGVPGGAGVPGGAGVPGGAGVPGGAGVPGGAGVPGGAGVPGGAGVPGGAGVPGGAGVPGGAGVPGGAGVPGGAGVPGGAGVPGGAGVPGGAGVPGGGVLPGVGGVLPGVGGVLPGVGGVLPGVGGVLPGVGGVLPGVGGVLPGVGGVLPGVGGVLPGVGGVLPGVGGVLPGVGGVLPGVGGVLPGVGGVLPGVGGVLPGVGGVLPGVGGVLPGVGGVLPGVGGVLPGVGGVLPGVGGVLPGVGGVLPGVGGVLPGVGGVLPGVGGVLPGVGGVLPGVGGVLPGVGGVLPGVGGVLPGVGGVLPGVGGVLPGVGGVLPGVGGVLPGVGGVLPGVGGVLPGVGGVLPGVGGVLPGVGGVLPGVGGVLPGVGGVLPGVGGVLPGVGGVLPGVGGVLPGVGGVLPGVGGVLPGVGGVLPGVGGVLPGVGGVLPGVGGVLPGVGGVLPGVGGVLPGVGGVLPGVGGVLPGVGGVLPGVGGVLPGVGGVLPGVGG
B3: the “hydrodynamic diameter (DLS)” value in data set [2] (25 μM in PBS at 37° C.) worked out at 6.63±1.25 nm.

B4: G(GAGVPG)70GG (protein)
chain: GVPGFGAGAGVPGFGAGAGVPGFGAGAGVPGFGAGAGVPGFGAGAGVPGFGAGAGVPGFGAGAGVPGFGAGAGVPGFGAGAGVPGFGAGAGVPGFGAGAGVPGFGAGAGVPGFGAGAGVPGFGAGAGVPGFGAGAGVPGFGAGAGVPGFGAGAGVPGFGAGAGVPGFGAGAGVPGFGAGAGVPGFGAGAGGG
For the molecule B4, the “Relative Hydrophobicity” value in data set [1] is reported as “Low”. Also, the “temperature of coacervate formation” value in data set [1] (in H2O, tested temperature range 20-80° C.) is recorded as “did not form coacervates”.

B5: G(GVLPGVG)28GG (protein)
chain: GGAGVPGGAGVPGGAGVPGGAGVPGGAGVPGGAGVPGGAGVPGGAGVPGGAGVPGGAGVPGGAGVPGGAGVPGGAGVPGGAGVPGGAGVPGGAGVPGGAGVPGGAGVPGGAGVPGGAGVPGGAGVPGGAGVPGGAGVPGGAGVPGGAGVPGGAGVPGGAGVPGGAGVPGGAGVPGGAGVPGGAGVPGGAGVPGGAGVPGGAGVPGGAGVPGGAGVPGGAGVPGGAGVPGGAGVPGGAGVPGGAGVPGGAGVPGGAGVPGGAGVPGGAGVPGGAGVPGGAGVPGGAGVPGGAGVPGGAGVPGGAGVPGGAGVPGGAGVPGGAGVPGGAGVPGGAGVPGGAGVPGGAGVPGGAGVPGGAGVPGGAGVPGGAGVPGGAGVPGGAGVPGGAGVPGGAGVPGGAGVPGGAGVPGGAGVPGGAGVPGGG
Take B5: in data set [1], the “Relative Hydrophobicity” value is on record as “High”, the “Tt (cooling)” value was determined as 29.70 ± 0.05 °C and the “Tt (heating)” value worked out at 33.30 ± 0.09 °C.
